The labels stand for the following.
B1: Speckle-type POZ protein (Homo sapiens), O43791 (parent)
chain: MSRVPSPPPPAEMSSGPVAESWCYTQIKVVKFSYMWTINNFSFCREEMGEVIKSSTFSSGANDKLKWCLRVNPKGLDEESKDYLSLYLLLVSCPKSEVRAKFKFSILNAKGEETKAMESQRAYRFVQGKDWGFKKFIRRDFLLDEANGLLPDDKLTLFCEVSVVQDSVNISGQNTMNMVKVPECRLADELGGLWENSRFTDCCLCVAGQEFQAHKAILAARSPVFSAMFEHEMEESKKNRVEINDVEPEVFKEMMCFIYTGKAPNLDKMADDLLAAADKYALERLKVMCEDALCSNLSVENAAEILILADLHSADQLKTQAVDFINYHASDVLETSGWKSMVVSHPHLVAEAYRSLASAQCPFLGPPRKRLKQS
partner: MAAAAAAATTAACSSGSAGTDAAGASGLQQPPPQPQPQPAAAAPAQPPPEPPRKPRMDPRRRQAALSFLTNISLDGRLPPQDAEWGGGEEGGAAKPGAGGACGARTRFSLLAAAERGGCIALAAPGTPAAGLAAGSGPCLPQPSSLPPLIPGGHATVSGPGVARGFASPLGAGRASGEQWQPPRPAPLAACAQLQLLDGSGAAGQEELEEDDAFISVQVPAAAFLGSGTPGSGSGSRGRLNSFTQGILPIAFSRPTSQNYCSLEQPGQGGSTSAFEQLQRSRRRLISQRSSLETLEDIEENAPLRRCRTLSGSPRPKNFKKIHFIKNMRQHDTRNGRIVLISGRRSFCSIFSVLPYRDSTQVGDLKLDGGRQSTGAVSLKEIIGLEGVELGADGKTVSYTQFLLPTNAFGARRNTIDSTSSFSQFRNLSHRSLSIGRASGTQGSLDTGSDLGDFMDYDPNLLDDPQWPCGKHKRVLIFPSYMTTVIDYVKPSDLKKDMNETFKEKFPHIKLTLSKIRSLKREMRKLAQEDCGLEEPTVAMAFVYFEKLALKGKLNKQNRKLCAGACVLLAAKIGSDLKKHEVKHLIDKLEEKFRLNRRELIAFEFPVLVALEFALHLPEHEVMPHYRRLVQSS
B2: Speckle-type POZ protein (Homo sapiens), O43791 (parent)
chain: B1 chain
partner: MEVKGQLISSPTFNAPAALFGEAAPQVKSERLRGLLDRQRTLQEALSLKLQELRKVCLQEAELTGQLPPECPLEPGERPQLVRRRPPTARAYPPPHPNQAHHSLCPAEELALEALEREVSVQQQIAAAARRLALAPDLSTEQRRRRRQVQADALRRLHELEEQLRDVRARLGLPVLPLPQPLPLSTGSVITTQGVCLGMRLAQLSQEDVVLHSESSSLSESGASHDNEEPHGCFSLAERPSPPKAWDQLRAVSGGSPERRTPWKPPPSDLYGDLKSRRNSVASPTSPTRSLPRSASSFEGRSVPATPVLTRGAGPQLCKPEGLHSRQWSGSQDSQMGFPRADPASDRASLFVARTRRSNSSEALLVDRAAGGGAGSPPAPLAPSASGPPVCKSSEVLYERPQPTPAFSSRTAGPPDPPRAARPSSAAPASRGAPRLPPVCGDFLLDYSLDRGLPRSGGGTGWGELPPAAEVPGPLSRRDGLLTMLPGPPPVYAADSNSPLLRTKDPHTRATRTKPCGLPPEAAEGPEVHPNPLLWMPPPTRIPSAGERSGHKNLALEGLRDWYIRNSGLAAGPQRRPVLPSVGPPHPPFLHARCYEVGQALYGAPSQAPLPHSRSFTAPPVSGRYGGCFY
B3: Speckle-type POZ protein (Homo sapiens), O43791 (parent)
chain: B1 chain
partner: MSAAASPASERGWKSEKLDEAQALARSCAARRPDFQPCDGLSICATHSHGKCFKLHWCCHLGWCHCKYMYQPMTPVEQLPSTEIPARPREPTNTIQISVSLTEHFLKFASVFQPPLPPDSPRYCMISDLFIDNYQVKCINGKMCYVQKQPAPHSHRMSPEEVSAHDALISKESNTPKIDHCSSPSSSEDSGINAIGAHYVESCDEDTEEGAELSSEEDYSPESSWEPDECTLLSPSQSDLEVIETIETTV

The variants in the first assay derive from B1. The settings on record: with cabl1_human CABLES1, Q8TDN4.
On to MSRVPSPPPPAEMSSGPVAESWCYTQIKVVKFSYMWTINNFSFCREEMGEVIKSSTFSSGANDKLKWCLRVNPKGLDEESKDYLSLCLLLVSCPKSEVRAKFKFSILNAKGEETKAMESQRAYRFVQGKDWGFKKFIRRDFLLDEANGLLPDDKLTLFCEVSVVQDSVNISGQNTMNMVKVPECRLADELGGLWENSRFTDCCLCVAGQEFQAHKAILAARSPVFSAMFEHEMEESKKNRVEINDVEPEVFKEMMCFIYTGKAPNLDKMADDLLAAADKYALERLKVMCEDALCSNLSVENAAEILILADLHSADQLKTQAVDFINYHASDVLETSGWKSMVVSHPHLVAEAYRSLASAQCPFLGPPRKRLKQS [Y87C], for which the “effect of a mutation on the interaction” value is “with no effect”.

Variants of B1 are the subject of another assay. The settings on record: with cabl1_human CABLES1, Q8TDN4. This is another data set of the same source.
Take MSRVPSPPPPAEMSSGPVAESWCYTQIKVVKFSYMWTINNFSFCREEMGEVIKSSTFSSGANDKLKWCLRVNPKGLDEESKDYLSLYLLLVSCPKSEVRAKFKFSILNAKGEETKAMESQRAYRFVQGKDWGVKKFIRRDFLLDEANGLLPDDKLTLFCEVSVVQDSVNISGQNTMNMVKVPECRLADELGGLWENSRFTDCCLCVAGQEFQAHKAILAARSPVFSAMFEHEMEESKKNRVEINDVEPEVFKEMMCFIYTGKAPNLDKMADDLLAAADKYALERLKVMCEDALCSNLSVENAAEILILADLHSADQLKTQAVDFINYHASDVLETSGWKSMVVSHPHLVAEAYRSLASAQCPFLGPPRKRLKQS [F133V]: the “effect of a mutation on the interaction” value is listed as “with no effect”.

In another assay the parent is B1. The settings on record: with cabl1_human CABLES1, Q8TDN4. This is another data set of the same source.
In the case of MSRVPSPPPPAEMSSGPVAESWCYTQIKVVKFSYMWTINNFSFCREEMGEVIKSSTFSSGANDKLKWCLRVNPKGLDEESKDYLSLYLLLVSCPKSEVRAKFKFSILNAKGEETKAMESQRAYRFVQGKDWGLKKFIRRDFLLDEANGLLPDDKLTLFCEVSVVQDSVNISGQNTMNMVKVPECRLADELGGLWENSRFTDCCLCVAGQEFQAHKAILAARSPVFSAMFEHEMEESKKNRVEINDVEPEVFKEMMCFIYTGKAPNLDKMADDLLAAADKYALERLKVMCEDALCSNLSVENAAEILILADLHSADQLKTQAVDFINYHASDVLETSGWKSMVVSHPHLVAEAYRSLASAQCPFLGPPRKRLKQS [F133L], the “effect of a mutation on the interaction” value is given as “with no effect”.

Variants of B1 are the subject of another assay. To be noted: with cabl1_human CABLES1, Q8TDN4. This is another data set of the same source.
For the variant MSRVPSPPPPAEMSSGPVAESWCYTQIKVVKFSYMWTINNFSFCREEMGEVIKSSTFSSGANDKLKWCLRVNPKGLDEESKDYLSLYLLLVSCPKSEVRAKCKFSILNAKGEETKAMESQRAYRFVQGKDWGFKKFIRRDFLLDEANGLLPDDKLTLFCEVSVVQDSVNISGQNTMNMVKVPECRLADELGGLWENSRFTDCCLCVAGQEFQAHKAILAARSPVFSAMFEHEMEESKKNRVEINDVEPEVFKEMMCFIYTGKAPNLDKMADDLLAAADKYALERLKVMCEDALCSNLSVENAAEILILADLHSADQLKTQAVDFINYHASDVLETSGWKSMVVSHPHLVAEAYRSLASAQCPFLGPPRKRLKQS [F102C], the “effect of a mutation on the interaction” value is reported as “with no effect”.

The next assay covers variants of B2. The settings on record: with cc120_human CCDC120, Q96HB5.
On to MSRVPSPPPPAEMSSGPVAESWCYTQIKVVKFSYMWTINNFSFCREEMGEVIKSSTFSSGANDKLKWCLRVNPKGLDEESKDYLSLYLLLVSCPKSEVRAKCKFSILNAKGEETKAMESQRAYRFVQGKDWGFKKFIRRDFLLDEANGLLPDDKLTLFCEVSVVQDSVNISGQNTMNMVKVPECRLADELGGLWENSRFTDCCLCVAGQEFQAHKAILAARSPVFSAMFEHEMEESKKNRVEINDVEPEVFKEMMCFIYTGKAPNLDKMADDLLAAADKYALERLKVMCEDALCSNLSVENAAEILILADLHSADQLKTQAVDFINYHASDVLETSGWKSMVVSHPHLVAEAYRSLASAQCPFLGPPRKRLKQS [F102C], for which the “effect of a mutation on the interaction” value was “with no effect”.

The variants in the next assay derive from B2. The settings on record: with cc120_human CCDC120, Q96HB5. The source holds these as a separate data set.
Turning to MSRVPSPPPPAEMSSGPVAESWCYTQIKVVKFSYMWTINNFSFCREEMGEVIKSSTFSSGANDKLKWCLRVNPKGLDEESKDYLSLYLLLVSCPKSEVRAKFKFSILNAKGEETKAMESQRAYRFVQGKDWGLKKFIRRDFLLDEANGLLPDDKLTLFCEVSVVQDSVNISGQNTMNMVKVPECRLADELGGLWENSRFTDCCLCVAGQEFQAHKAILAARSPVFSAMFEHEMEESKKNRVEINDVEPEVFKEMMCFIYTGKAPNLDKMADDLLAAADKYALERLKVMCEDALCSNLSVENAAEILILADLHSADQLKTQAVDFINYHASDVLETSGWKSMVVSHPHLVAEAYRSLASAQCPFLGPPRKRLKQS [F133L], the “effect of a mutation on the interaction” value is recorded as “with no effect”.

In a further assay the parent is B3. To be noted: with cc070_human C3orf70, A6NLC5.
For the variant MSRVPSPPPPAEMSSGPVAESWCYTQIKVVKFSYMWTINNFSFCREEMGEVIKSSTFSSGANDKLKWCLRVNPKGLDEESKDYLSLYLLLVSCPKSEVRAKCKFSILNAKGEETKAMESQRAYRFVQGKDWGFKKFIRRDFLLDEANGLLPDDKLTLFCEVSVVQDSVNISGQNTMNMVKVPECRLADELGGLWENSRFTDCCLCVAGQEFQAHKAILAARSPVFSAMFEHEMEESKKNRVEINDVEPEVFKEMMCFIYTGKAPNLDKMADDLLAAADKYALERLKVMCEDALCSNLSVENAAEILILADLHSADQLKTQAVDFINYHASDVLETSGWKSMVVSHPHLVAEAYRSLASAQCPFLGPPRKRLKQS [F102C], the “effect of a mutation on the interaction” value is “with no effect”.

Variants of B3 are the subject of the next assay. To be noted: with cc070_human C3orf70, A6NLC5. The source holds these as a separate data set.
As to MSRVPSPPPPAEMSSGPVAESWCYTQIKVVKFSYMWTINNFSFCREEMGEVIKSSTFSSGANDKLKWCLRVNPKGLDEESKDYLSLCLLLVSCPKSEVRAKFKFSILNAKGEETKAMESQRAYRFVQGKDWGFKKFIRRDFLLDEANGLLPDDKLTLFCEVSVVQDSVNISGQNTMNMVKVPECRLADELGGLWENSRFTDCCLCVAGQEFQAHKAILAARSPVFSAMFEHEMEESKKNRVEINDVEPEVFKEMMCFIYTGKAPNLDKMADDLLAAADKYALERLKVMCEDALCSNLSVENAAEILILADLHSADQLKTQAVDFINYHASDVLETSGWKSMVVSHPHLVAEAYRSLASAQCPFLGPPRKRLKQS [Y87C], the “effect of a mutation on the interaction” value was “with no effect”.

For the origin of these results see IntAct's records for PubMed 35512704.
